Results from paper PMC12164381 (mAbs, 2025).
Changes are numbered by the printed parent chain. Like-named read-outs stand apart in the source and are kept apart here.

Key:
Assay in all cases: SPR
[1] = biological target: T1, SARS-CoV-2 Spike RBD, original (Wuhan) strain (SARS-CoV-2, original Wuhan strain, UniProt P0DTC2)
[2] = biological target: T1, SARS-CoV-2 Spike RBD, original (Wuhan) …; remark: listed apart in the source
[3] = biological target: SARS-CoV-2 Spike RBD, XBB.1.5 strain (SARS-CoV-2, Omicron XBB.1.5, strain)

B1: LY-CoV1404 (antibody, V domains shown)
VH: QITLKESGPTLVKPTQTLTLTCTFSGFSLSISGVGVGWLRQPPGKALEWLALIYWDDDKRYSPSLKSRLTISKDTSKNQVVLKMTNIDPVDTATYYCAHHSISTIFDHWGQGTLVTVSS
VL: QSALTQPASVSGSPGQSITISCTATSSDVGDYNYVSWYQQHPGKAPKLMIFEVSDRPSGISNRFSGSKSGNTASLTISGLQAEDEADYYCSSYTTSSAVFGGGTKLTVL
pKD [1]: 9.01 -log10(KD)

B2: Inverse folding design from the LY-CoV1404 starting point (Table 5, design row 2, the 5th table, row 13) (antibody, V domains shown)
VH: B1 VH
VL: B1 VL with D31I, S97A
pKD [2]: 9.48 -log10(KD)

B3: Inverse folding design from the LY-CoV1404 starting point (Table 5, design row 1, the 5th table, row 12) (antibody, V domains shown)
VH: B1 VH with I31T
VL: B1 VL with D31N, T95S, A98V
pKD [2]: 9.57 -log10(KD)

B4: S2K146 (antibody, V domains shown)
VH: QVQLVESGGVVVQPGGSLRLSCAASGFTFHDHTMHWVRQAPGKGLEWVSLITWNGGTIHYSDSVKGRFTISRDNSKNSLYLQMNSLRTEDTALYYCAKDLGRGGWYLPSDAWGQGTLVTVSS
VL: not shown
pKD [1]: 10.3 -log10(KD)

B5: BD55–5840 (antibody, V domains shown)
VH: VQLAQSGSELRKPGASVKVSCDTSGHSFTSNAIHWVRQAPGQGLEWMGWINTDTGTPTYAQGFTGRFVFSLDTSARTAYLQISSLKADDTAVFYCARERDYSDYFFDYWGQGTLVTVSS
VL: EVVMTQSPASLSVSPGERATLSCRARASLGISTDLAWYQQRPGQAPRLLIYGASTRATGIPARFSGSGSGTEFTLTISSLQSEDSAVYYCQQYSNWPLTFGGGTKVEIK
pKD [1]: 10.1 -log10(KD)

B6: Inverse folding design from the DXP-604 starting point (Table 5, design row 1, the 5th table, row 4) (antibody, V domains shown)
VH: EVQLVESGGGLIQPGGSLRLSCAASGIIVSRNYMTWVRQAPGKGLEWVSVIYSGGSTFYADSVKGRFTISRDNSKNTLYLQMSSLRAEDTAVYYCARDLGPYGMDVWGQGTTVTVSS
VL: DIQLTQSPSFLSASVGDRVTITCRASQGISSDLAWYQQKPGKAPNLLIYAASTLQSGVPSRFSGSGSGTEFTLTISSLQPEDFATYYCQQLMDTLYTFGQGTKLEIK
pKD [2]: 10 -log10(KD)
pKD [3]: 6.33 -log10(KD)

B7: Inverse folding design from the DXP-604 starting point (Table 5, design row 5, the 5th table, row 8) (antibody, V domains shown)
VH: B6 VH with S53P, P101V
VL: B6 VL with M92N, T94Y
pKD [2]: 10.8 -log10(KD)
pKD [3]: 6.33 -log10(KD)

B8: Inverse folding design from the DXP-604 starting point (Table 5, design row 7, the 5th table, row 10) (antibody, V domains shown)
VH: B6 VH
VL: B6 VL with M92N, D93S, T94D
pKD [2]: 10.6 -log10(KD)
pKD [3]: 6.07 -log10(KD)

B9: Inverse folding design from the DXP-604 starting point (Table 5, design row 4, the 5th table, row 7) (antibody, V domains shown)
VH: B6 VH with S56T
VL: B6 VL with S30G, M92N, D93S, T94D
pKD [2]: 9.53 -log10(KD)
pKD [3]: 6.35 -log10(KD)

B10: Inverse folding design from the DXP-604 starting point (Table 5, design row 3, the 5th table, row 6) (antibody, V domains shown)
VH: B6 VH
VL: B6 VL with M92N, T94L
pKD [2]: 9.38 -log10(KD)
pKD [3]: 6.01 -log10(KD)

B11: Inverse folding design from the DXP-604 starting point (Table 5, design row 6, the 5th table, row 9) (antibody, V domains shown)
VH: B6 VH
VL: B6 VL with S30G, M92N, D93S, T94D
pKD [2]: 10 -log10(KD)
pKD [3]: 6.28 -log10(KD)

B12: Inverse folding design from the DXP-604 starting point (Table 5, design row 2, the 5th table, row 5) (antibody, V domains shown)
VH: B6 VH with S56T, G100A, P101V
VL: B6 VL with S30G, M92N, D93S, T94D
pKD [2]: 10.2 -log10(KD)
pKD [3]: 6.15 -log10(KD)

B13: REGN10987 (antibody, V domains shown)
VH: QVQLVESGGGVVQPGRSLRLSCAASGFTFSNYAMYWVRQAPGKGLEWVAVISYDGSNKYYADSVKGRFTISRDNSKNTLYLQMNSLRTEDTAVYYCASGSDYGDYLLVYWGQGTLVTVSS
VL: QSALTQPASVSGSPGQSITISCTGTSSDVGGYNYVSWYQQHPGKAPKLMIYDVSKRPSGVSNRFSGSKSGNTASLTISGLQSEDEADYYCNSLTSISTWVFGGGTKLTVL
pKD [1]: 7.84 -log10(KD)
